Literature values as cited in publication PMC4976356, “Structural insight into β-Clamp and its interaction with DNA Ligase in Helicobacter pylori” (Scientific Reports, 2016).

System: Ecβ-clamp

B1: ligase from E. coli: E. coli DNA ligase examined for interaction with Ecβ-clamp (ref 10) (protein, UniProt P15042 1-671, looked up)
DNA ligase: MESIEQQLTELRTTLRHHEYLYHVMDAPEIPDAEYDRLMRELRELETKHPELITPDSPTQRVGAAPLAAFSQIRHEVPMLSLDNVFDEESFLAFNKRVQDRLKNNEKVTWCCELKLDGLAVSILYENGVLVSAATRGDGTTGEDITSNVRTIRAIPLKLHGENIPARLEVRGEVFLPQAGFEKINEDARRTGGKVFANPRNAAAGSLRQLDPRITAKRPLTFFCYGVGVLEGGELPDTHLGRLLQFKKWGLPVSDRVTLCESAEEVLAFYHKVEEDRPTLGFDIDGVVIKVNSLAQQEQLGFVARAPRWAVAFKFPAQEQMTFVRDVEFQVGRTGAITPVARLEPVHVAGVLVSNATLHNADEIERLGLRIGDKVVIRRAGDVIPQVVNVVLSERPEDTREVVFPTHCPVCGSDVERVEGEAVARCTGGLICGAQRKESLKHFVSRRAMDVDGMGDKIIDQLVEKEYVHTPADLFKLTAGKLTGLERMGPKSAQNVVNALEKAKETTFARFLYALGIREVGEATAAGLAAYFGTLEALEAASIEELQKVPDVGIVVASHVHNFFAEESNRNVISELLAEGVHWPAPIVINAEEIDSPFAGKTVVLTGSLSQMSRDDAKARLVELGAKVAGSVSKKTDLVIAGEAAGSKLAKAQELGIEVIDEAEMLRLLGS
interaction with E. coli β-clamp (in words): interacts with its β-clamp
